Laboratory results published in the RNAGym collection of RNA variant scans (doi:10.7554/elife.90254).

B1: LINE1-full (parent)
chain: UACGUAGGUGGUUUUCCCCUGAUAGUGCUAAGGGGGCCUGGAAGUUUGGACUGGGCAGAGCUCAACACAGCGUGGCAAAGUGGCUGUGGCUAGACUGCCUCUCUGGAUUCCUCGUCACUCAGCAGGGCAUCUCUGAGAGAAAUGCC

Variants of: B1
Experiment: self-cleavage, relative activity (ratio to wild type); higher = more cleavage; in vitro, sequencing; the parent is a self-cleaving ribozyme

Variant | self-cleavage
U12C C98U | 0.26
G41C A138G | 0.97
G114A G122U | 1.5
U52A G75U | 0.45
U73G U104C | 2
G93A C101A | 0.04
U73G U102A | 1.22
G25A A65C | 0.02
C28A G88A | 0
U52A A77U | 1.03
G72A U100C | 0.32
U115C A136U | 1.99
C3U U20G | 0.53
A121U A129U | 1.41
G36C U62C | 0.05
U26A A57U | 0.04
G88A A142G | 0.06
U39A U143A | 1.37
U47C U132C | 1.62
A107U A129G | 2.12
G125U U134A | 1.87

Variant | self-cleavage
G88A A129G | 0.07
A43C G97A | 0.09
C66U A140G | 0.04
A24U A136G | 1.64
U47A A117U | 1.25
C16U A140G | 0.99
C17U A141G | 0
G75A U119C | 1.5
U62C G72U | 0.03
U62C G72C | 0.03
A77U U109G | 0.61
G35A A42G | 1.17
G40A U143C | 1.26
U112C G127A | 1.35
A31U G86A | 0.05
U115C C131A | 0.47
C123A A140G | 1.42
U45A U102G | 0
U46A A142G | 1.45
U85C U102G | 0.22
C17A A42G | 1.13

Variant | self-cleavage
U29C C66U | 0.07
G126A | 1.31
C3U U12C | 0.57
A67G C113A | 0.45
A77C A94G | 0
U20C U46C | 1.5
G122C A136U | 1.96
C19A U112G | 0.85
U108C U130G | 1.02
U20C A30U | 1.18
G70A A138C | 0.32
C84U U134C | 0.19
C19A U109A | 1.58
A136G A141G | 1.03
A30G A69U | 0.19
A31U U47C | 1.08
A57G C84U | 0.11
G82A G86U | 0.1
G55U A117G | 0.3
U87C U115C | 0.31
A69G A117G | 0.5

Variant | self-cleavage
C101U A141G | 2
U14A U62A | 0.05
A64U G122C | 0.44
A43G U104G | 1.78
A64G U130C | 0.33
G55A U134C | 0.23
U9C U20A | 0.95
U13A A78U | 1.52
U81C U102A | 1.05
U12A G127A | 0.66
U23C C113U | 0.88
U12G A94G | 0.42
C63G U130C | 0.34
U52C A64U | 0.45
A42G C133A | 1.59
A67G C111U | 0.54
A67U U96A | 0.02
U15G A43G | 0.5
A59G U62C | 0.1
G32A A129U | 1.15
